The source of these data is paper PMC6233201 (Scientific Reports, 2018).

This data set deals with the molecule itself. Kind of data set: SEC; gel filtration (Superdex 200 10/300 GL) of the Ni-NTA purified DEDs; self-association read from the elution position (monomer, dimer, oligomer peaks).

B1: wild-type death effector domains (DEDs) of human caspase-8 (residues 1-188) with a C-terminal His6 tag (domain or fragment, UniProt Q14790-1 1-188, looked up)
chain: MDFSRNLYDIGEQLDSEDLASLKFLSLDYIPQRKQEPIKDALMLFQRLQEKRMLEESNLSFLKELLFRINRLDLLITYLNTRKEEMERELQTPGRAQISAYRVMLYQISEEVSRSELRSFKFLLQEEISKCKLDDDMNLLDIFIEMEKRVILGEGKLDILKRVCAQINKSLLKIINDYEEFSKERSSS
notes: tandem death effector domains (DED) of human caspase-8, residues 1-188, UniProt Q14790-1; The soluble protein was mixed with E. coli slyD after purification; also called DED^WT; wild-type DEDs; source: E. coli Rosetta (DE3) pLysS, pET-21b, purified (Ni-NTA, gel filtration); very low yields of soluble protein; not shown: His6, C-terminal, kept
Take B1: the binding result was “binds”.
